Literature values, collected in US9394339B2, “Stabilized formulations of peptides and proteins protecting against non-enzymatic degradation” (Lyotropic Therapeutics, Inc., priority 2007, dated 2016).
Like-named read-outs stand apart in the source and are kept apart here.

[1] = aqueous solution, pH 7.4, 37° C., Tris-HCl buffer

| Molecule | T1/10 (time to 10% degradation by deamidation) [1] | other results |
| --- | --- | --- |
| Electron transfer flavoprotein (1EFV): human protein (protein, UniProt P13804 20-333; P38117 2-255, looked up) Electron transfer … 1: QSTLVIAEHANDSLAPITLNTITAATRLGGEVSCLVAGTKCDKVAQDLCKVAGIAKVLVAQHDVYKGLLPEELTPLILATQKQFNYTHICAGASAFGKNLLPRVAAKLEVAPISDIIAIKSPDTFVRTIYAGNALCTVKCDEKVKVFSVRGTSFDAAATSGGSASSEKASSTSPVEISEWLDQKLTKSDRPELTGAKVVVSGGRGLKSGENFKLLYDLADQLHAAVGASRAAVDAGFVPNDMQVGQTGKIVAPELYIAVGISGAIQHLAGMKDSKTIVAINKDPEAPIFQVADYGIVADLFKVVPEMTEILKKK Electron transfer … 2: AELRVLVAVKRVIDYAVKIRVKPDRTGVVTDGVKHSMNPFCEIAVEEAVRLKEKKLVKEVIAVSCGPAQCQETIRTALAMGADRGIHVEVPPAEAERLGPLQVARVLAKLAEKEKVDLVLLGKQAIDDDCNQTGQMTAGFLDWPQGTFASQVTLEGDKLKVEREIDGGLETLRLKLPAVVTADLRLNEPRYATLPNIMKAKKKKIEVIKPGDLGVDLTSKLSVISVEDPPQRTAGVKVETTEDLVAKLKEIGRI | 29 days | – |
| Glucosamine-6-phosphate deaminase isomerase (1D9T): human protein (protein, UniProt P46926 1-289, looked up) Glucosamine-6-phosphate …: MKLIILEHYSQASEWAAKYIRNRIIQFNPGPEKYFTLGLPTGSTPLGCYKKLIEYYKNGDLSFKYVKTFNMDEYVGLPRDHPESYHSFMWNNFFKHIDIHPENTHILDGNAVDLQAECDAFEEKIKAAGGIELFVGGIGPDGHIAFNEPGSSLVSRTRVKTLAMDTILANARFFDGELTKVPTMALTVGVGTVMDAREVMILITGAHKAFALYKAIEEGVNHMWTVSAFQQHPRTVFVCDEDATLELKVKTVKYFKGLMLVHNKLVDPLYSIKEKETEKSQSSKKPYSD | – | T1/2 (half-life, deamidation) (buffer, pH 7.4): 320 days; T1/10 (time to 10% degradation by deamidation) (pH 7.4): 49 days |
| Thymidylate synthase (1HW3): human protein (protein, UniProt P04818 2-313, looked up) Thymidylate synthase: PVAGSELPRRPLPPAAQERDAEPRPPHGELQYLGQIQHILRCGVRKDDRTGTGTLSVFGMQARYSLRDEFPLLTTKRVFWKGVLEELLWFIKGSTNAKELSSKGVKIWDANGSRDFLDSLGFSTREEGDLGPVYGFQWRHFGAEYRDMESDYSGQGVDQLQRVIDTIKTNPDDRRIIMCAWNPRDLPLMALPPCHALCQFYVVNSELSCQLYQRSGDMGLGVPFNIASYALLTYMIAHITGLKPGDFIHTLGDAHIYLNHIEPLKIQLQREPRPFPKLRILRKVEKIDDFKAEDFQIEGYNPHPTIKMEMAV | 0.41 days | – |
| Neutrophil (gelatinase) (1DFV): human protein (protein, UniProt P80188 21-198, looked up) Neutrophil …: QDSTSDLIPAPPLSKVPLQQNFQDNQFQGKWYVVGLAGNAILREDKDPQKMYATIYELKEDKSYNVTSVLFRKKKCDYWIRTFVPGCQPGEFTLGNIKSYPGLTSYLVRVVSTNYNQHAMVFFKKVSQNREYFKITLYGRTKELTSELKENFIRFSKSLGLPENHIVFPVPIDQCIDG | 44 days | – |
| Phenylalanine hydroxylase (1DMW): human protein (protein, UniProt P00439 1-452, looked up) Phenylalanine-4-hydroxylase: MSTAVLENPGLGRKLSDFGQETSYIEDNCNQNGAISLIFSLKEEVGALAKVLRLFEENDVNLTHIESRPSRLKKDEYEFFTHLDKRSLPALTNIIKILRHDIGATVHELSRDKKKDTVPWFPRTIQELDRFANQILSYGAELDADHPGFKDPVYRARRKQFADIAYNYRHGQPIPRVEYMEEEKKTWGTVFKTLKSLYKTHACYEYNHIFPLLEKYCGFHEDNIPQLEDVSQFLQTCTGFRLRPVAGLLSSRDFLGGLAFRVFHCTQYIRHGSKPMYTPEPDICHELLGHVPLFSDRSFAQFSQEIGLASLGAPDEYIEKLATIYWFTVEFGLCKQGDSIKAYGAGLLSSFGELQYCLSEKPKLLPLELEKTAIQNYTVTEFQPLYYVAESFNDAKEKVRNFAATIPRPFSVRYDPYTQRIEVLDNTQQLKILADSINSEIGILCSALQKIK | 33 days | – |
| Uroporphyrinogen decarboxylase (1URO): human protein (protein, UniProt P06132 1-367, looked up) Uroporphyrinogen decarboxylase: MEANGLGPQGFPELKNDTFLRAAWGEETDYTPVWCMRQAGRYLPEFRETRAAQDFFSTCRSPEACCELTLQPLRRFPLDAAIIFSDILVVPQALGMEVTMVPGKGPSFPEPLREEQDLERLRDPEVVASELGYVFQAITLTRQRLAGRVPLIGFAGAPWTLMTYMVEGGGSSTMAQAKRWLYQRPQASHQLLRILTDALVPYLVGQVVAGAQALQLFESHAGHLGPQLFNKFALPYIRDVAKQVKARLREAGLAPVPMIIFAKDGHFALEELAQAGYEVVGLDWTVAPKKARECVGKTVTLQGNLDPCALYASEEEIGQLVKQMLDDFGPHRYIANLGHGLYPDMDPEHVGAFVDAVHKHSRLLRQN | 0.15 days | time to lose 10% potency (pH 7.4, 37° C., […] Tris.HCl buffer): about 3.6 hours |
| Eosinophil cationic protein (1QMT): human protein (protein, UniProt P12724 28-160, looked up) Eosinophil cationic protein: RPPQFTRAQWFAIQHISLNPPRCTIAMRAINNYRWRCKNQNTFLRTTFANVVNVCGNQSIRCPHNRTLNNCHRSRFRVPLLHCDLINPGAQNISNCTYADRPGRRFYVVACDNRDPRDSPRYPVVPVHLDTTI | 65 days | – |
| Quinone reductase type 2 (1QR2): human protein (protein, UniProt P16083 1-231, looked up) Ribosyldihydronicotinamide …: MAGKKVLIVYAHQEPKSFNGSLKNVAVDELSRQGCTVTVSDLYAMNLEPRATDKDITGTLSNPEVFNYGVETHEAYKQRSLASDITDEQKKVREADLVIFQFPLYWFSVPAILKGWMDRVLCQGFAFDIPGFYDSGLLQGKLALLSVTTGGTAEMYTKTGVNGDSRYFLWPLQHGTLHFCGFKVLAPQISFAPEIASEEERKGMVAAWSQRLQTIWKEEPIPCTAHWHFGQ | 50 days | – |
| -Lactalbumin (1B9O): human protein (protein, UniProt P00709 20-142, looked up) Alpha-lactalbumin: KQFTKCELSQLLKDIDGYGGIALPELICTMFHTSGYDTQAIVENNESTEYGLFQISNKLWCKSSQVPQSRNICDISCDKFLDDDITDDIMCAKKILDIKGIDYWLAHKALCTEKLEQWLCEKL | 20 days | – |
| Ribonuclease 4 (1RNF): human protein (protein, UniProt P34096 29-147, looked up) Ribonuclease 4: QDGMYQRFLRQHVHPEETGGSDRYCNLMMQRRKMTLYHCKRFNTFIHEDIWNIRSICSTTNIQCKNGKMNCHEGVVKVTDCRDTGSSRAPNCRYRAIASTRRVVIACEGNPQVPVHFDG | 20 days | – |
| O6-alkylguanine-DNA alkyltransferase (1EH6): human protein (protein, UniProt P16455 1-207, looked up) Methylated-DNA--protein-cystei …: MDKDCEMKRTTLDSPLGKLELSGCEQGLHEIKLLGKGTSAADAVEVPAPAAVLGGPEPLMQCTAWLNAYFHQPEAIEEFPVPALHHPVFQQESFTRQVLWKLLKVVKFGEVISYQQLAALAGNPKAARAVGGAMRGNPVPILIPCHRVVCSSGAVGNYSGGLAVKEWLLAHEGHRLGKPGLGGSSGLAGAWLKGAGATSGSPPAGRN | 46 days | – |
| Thioltransferase (1JHB): human protein (protein, UniProt P35754 2-106, looked up) Glutaredoxin-1: AQEFVNCKIQPGKVVVFIKPTCPYCRRAQEILSQLPIKQGLLEFVDITATNHTNEIQDYLQQLTGARTVPRVFIGKDCIGGCSDLVSLQQSGELLTRLKQIGALQ | 71 days | – |
| Procarboxypeptidase A2 (1AYE): human protein (protein, UniProt P48052 19-419, looked up, pro-form) pro-form: LETFVGDQVLEIVPSNEEQIKNLLQLEAQEHLQLDFWKSPTTPGETAHVRVPFVNVQAVKVFLESQGIAYSIMIEDVQVLLDKENEEMLFNRRRERSGNFNFGAYHTLEEISQEMDNLVAEHPGLVSKVNIGSSFENRPMNVLKFSTGGDKPAIWLDAGIHAREWVTQATALWTANKIVSDYGKDPSITSILDALDIFLLPVTNPDGYVFSQTKNRMWRKTRSKVSGSLCVGVDPNRNWDAGFGGPGASSNPCSDSYHGPSANSEVEVKSIVDFIKSHGKVKAFITLHSYSQLLMFPYGYKCTKLDDFDELSEVAQKAAQSLRSLHGTKYKVGPICSVIYQASGGSIDWSYDYGIKYSFAFELRDTGRYGFLLPARQILPTAEETWLGLKAIMEHVRDHPY | 23 days | – |
| Lithostathine (1LIT): human protein (protein, UniProt P05451 23-166, looked up) Lithostathine-1-alpha: QEAQTELPQARISCPEGTNAYRSYCYYFNEDRETWVDADLYCQNMNSGNLVSVLTQAEGAFVASLIKESGTDDFNVWIGLHDPKKNRRWHWSSGSLVSYKSWGIGAPSSVNPGYCVSLTSSTGFQKWKDVPCEDKFSFVCKFKN | 74 days | – |
| Ribonuclease inhibitor (1A4Y): human protein (protein, UniProt P13489 2-461, looked up) Ribonuclease inhibitor: SLDIQSLDIQCEELSDARWAELLPLLQQCQVVRLDDCGLTEARCKDISSALRVNPALAELNLRSNELGDVGVHCVLQGLQTPSCKIQKLSLQNCCLTGAGCGVLSSTLRTLPTLQELHLSDNLLGDAGLQLLCEGLLDPQCRLEKLQLEYCSLSAASCEPLASVLRAKPDFKELTVSNNDINEAGVRVLCQGLKDSPCQLEALKLESCGVTSDNCRDLCGIVASKASLRELALGSNKLGDVGMAELCPGLLHPSSRLRTLWIWECGITAKGCGDLCRVLRAKESLKELSLAGNELGDEGARLLCETLLEPGCQLESLWVKSCSFTAACCSHFSSVLAQNRFLLELQISNNRLEDAGVRELCQGLGQPGSVLRVLWLADCDVSDSSCSSLAATLLANHSLRELDLSNNCLGDAGILQLVESVRQPGCLLEQLVLYDIYWSEEMEDRLQALEKDKPSLRVIS | 68 days | – |
| Phosphatidylethanolamine binding protein (1BD9): human protein (protein, UniProt P30086 2-187, looked up) Phosphatidylethanolamine-bindi …: PVDLSKWSGPLSLQEVDEQPQHPLHVTYAGAAVDELGKVLTPTQVKNRPTSISWDGLDSGKLYTLVLTDPDAPSRKDPKYREWHHFLVVNMKGNDISSGTVLSDYVGSGPPKGTGLHRYVWLVYEQDRPLKCDEPILSNRSGDHRGKFKVASFRKKYELRAPVAGTCYQAEWDDYVPKLYEQLSGK | 100 days | – |
